First the molecules themselves.
B1: MMP1 (parent)
chain: FHGTRQYKFDPKTKRILTLQKANS
B2: SPACA3 (parent)
chain: FTSGFNAAALDYEADGSTNNGIFQ
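Further: lentivirally expressed fusions sorted by FACS into six bins by GFP to DsRed ratio, PSI derived from sequencing read proportions per bin multiplied by bin number.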

In the first data set the parent is B1. In words: protein stability index of a GFP-peptide fusion (GPS, HEK-293T) (PSI 1-6); higher = more stable. To be noted: c terminus: a fixed tail appended.
Turning to FHMTRQYKFDPKTKRILTLQKANS, the protein stability index was 1.78.
The same measure, in the same setting: as for FHCTRQYKFDPKTKRILTLQKANS, the figure is 2.63; as for FHRTRQYKFDPKTKRILTLQKANS, 1.6; as for FHHTRQYKFDPKTKRILTLQKANS, 2.23.
Still for that read-out and setting: with FHYTRQYKFDPKTKRILTLQKANS the figure was 1.96; with FHETRQYKFDPKTKRILTLQKANS, 2.61; with FHITRQYKFDPKTKRILTLQKANS, 1.78.
With FHFTRQYKFDPKTKRILTLQKANS, the protein stability index was 1.58.
As to FHKTRQYKFDPKTKRILTLQKANS, the protein stability index was 1.93.
The same measure, in the same setting: as for FHSTRQYKFDPKTKRILTLQKANS, the figure is 1.54; as for FHGTRQKKFDPKTKRILTLQKANS, 2.55; as for FHGTRQQKFDPKTKRILTLQKANS, 2.45.
For the variant FHGTRQPKFDPKTKRILTLQKANS, the protein stability index was 2.08.
Same read-out and setting: with FHGTRQRKFDPKTKRILTLQKANS the figure was 2.4.
Still for that read-out and setting: as for FHGTRQNKFDPKTKRILTLQKANS, the figure is 2.46; as for FHGTRQTKFDPKTKRILTLQKANS, 1.89.
Regarding FHGTRQEKFDPKTKRILTLQKANS, the protein stability index stood at 2.5.
With FHGTRQWKFDPKTKRILTLQKANS, the protein stability index came out at 3.02.
Same read-out and setting: with FHGTRQIKFDPKTKRILTLQKANS the figure was 1.94; with FHGTRQVKFDPKTKRILTLQKANS, 2.27.
For FHGTRQHKFDPKTKRILTLQKANS, the protein stability index is 2.18.
The same measure, in the same setting: with FHGTRQAKFDPKTKRILTLQKANS the figure was 2.31.
Turning to FHGTRQDKFDPKTKRILTLQKANS, the protein stability index was 2.38.
On to FHGTRQFKFDPKTKRILTLQKANS, for which the protein stability index came to 1.75.
The same measure, in the same setting: as for FHGTRQGKFDPKTKRILTLQKANS, the figure is 1.77; as for FHGTRQSKFDPKTKRILTLQKANS, 2.74; as for FHGTRQMKFDPKTKRILTLQKANS, 1.72.
The same measure, in the same setting: as for FHGTRQLKFDPKTKRILTLQKANS, the figure is 2.57; as for FHGTRQCKFDPKTKRILTLQKANS, 1.97.
On the same count and under the same terms, as for FHGIRQYKFDPKTKRILTLQKANS, the figure is 2.13; as for FHGMRQYKFDPKTKRILTLQKANS, 1.8; as for FHGKRQYKFDPKTKRILTLQKANS, 2.17.
FHGSRQYKFDPKTKRILTLQKANS: the protein stability index is 2.08.
The same measure, in the same setting: as for FHGNRQYKFDPKTKRILTLQKANS, the figure is 2.38.
Regarding FHGFRQYKFDPKTKRILTLQKANS, the protein stability index worked out at 3.12.
The same measure, in the same setting: with FHGYRQYKFDPKTKRILTLQKANS the figure was 2.98; with FHGVRQYKFDPKTKRILTLQKANS, 1.69.
On to FHGQRQYKFDPKTKRILTLQKANS, for which the protein stability index was 2.95.
In the case of FHGCRQYKFDPKTKRILTLQKANS, the protein stability index is 1.6.
On to FHGLRQYKFDPKTKRILTLQKANS, for which the protein stability index was 1.26.
Same read-out and setting: with FHGDRQYKFDPKTKRILTLQKANS the figure was 2.43; with FHGRRQYKFDPKTKRILTLQKANS, 2.06; with FHGGRQYKFDPKTKRILTLQKANS, 1.78.
The same measure, in the same setting: as for FHGPRQYKFDPKTKRILTLQKANS, the figure is 1.61; as for FHGARQYKFDPKTKRILTLQKANS, 1.81.
Still for that read-out and setting: with FHGERQYKFDPKTKRILTLQKANS the figure was 2.29; with FHGWRQYKFDPKTKRILTLQKANS, 3.19; with FHGHRQYKFDPKTKRILTLQKANS, 1.68.

The variants in another data set derive from B2. The description is as above. To be noted: c terminus: a fixed tail appended.
As for YTSGFNAAALDYEADGSTNNGIFQ, the protein stability index was 2.24.
Turning to NTSGFNAAALDYEADGSTNNGIFQ, the protein stability index was determined as 4.94.
Turning to QTSGFNAAALDYEADGSTNNGIFQ, the protein stability index was determined as 4.24.
For FTSGFNAAALDYEIDGSTNNGIFQ, the protein stability index was found to be 2.05.
With FTSGFNAAALDYEADGSTNNGIQQ, the protein stability index was found to be 2.36.
Same read-out and setting: as for FTSGFNAAAHDYEADGSTNNGIFQ, the figure is 2.32; as for FTSGFNAAANDYEADGSTNNGIFQ, 2.08.
For the variant FTSGFNAAADDYEADGSTNNGIFQ, the protein stability index came out at 2.47.
As for FTSGFNAAAKDYEADGSTNNGIFQ, the protein stability index turned out to be 1.99.
Take FTSGFNAAAVDYEADGSTNNGIFQ: the protein stability index was found to be 2.33.
As for FPSGFNAAALDYEADGSTNNGIFQ, the protein stability index was determined as 2.07.
Same read-out and setting: as for FSSGFNAAALDYEADGSTNNGIFQ, the figure is 2.88.
Same read-out and setting: with FMSGFNAAALDYEADGSTNNGIFQ the figure was 3.05.
Same read-out and setting: as for FTSGFNAAALVYEADGSTNNGIFQ, the figure is 2.6; as for FTSGFNAAWLDYEADGSTNNGIFQ, 2.5.
With FTSGFNAAALDYEADGSTNNDIFQ, the protein stability index amounted to 1.9.
FTSGFNAAALDYEADGSTNNFIFQ: the protein stability index is 1.8.
On the same count and under the same terms, as for FTSIFNAAALDYEADGSTNNGIFQ, the figure is 2.15.
Take FTSGFNAAALDYEADGSTNNGIFL: the protein stability index was determined as 1.71.
Same read-out and setting: as for FTSGFNAAALDYEADGSTNNGIFG, the figure is 2.36.
In the case of FTSGFNAAALDYEAHGSTNNGIFQ, the protein stability index was 1.74.
Turning to FTSGFNAAALDYEAEGSTNNGIFQ, the protein stability index amounted to 2.26.
The same measure, in the same setting: with FTSGFNAAALDYEAMGSTNNGIFQ the figure was 1.63; with FTSGFNAAALDYEANGSTNNGIFQ, 1.86.
As to FTSGFNAPALDYEADGSTNNGIFQ, the protein stability index stood at 2.13.
Regarding FTSGFNAKALDYEADGSTNNGIFQ, the protein stability index is 2.23.
On the same count and under the same terms, with FTSGFNAAALDYFADGSTNNGIFQ the figure was 2.46.
With FTSGFNGAALDYEADGSTNNGIFQ, the protein stability index is 2.13.
Same read-out and setting: with FTSGFNVAALDYEADGSTNNGIFQ the figure was 2.35; with FTSGFNSAALDYEADGSTNNGIFQ, 1.92; with FTSGFNAAALDYEADGHTNNGIFQ, 2.31.
For FTSGDNAAALDYEADGSTNNGIFQ, the protein stability index was 4.79.
For the variant FTSGLNAAALDYEADGSTNNGIFQ, the protein stability index was 3.11.
Take FTSGFNAAALDYEADGSRNNGIFQ: the protein stability index was 2.02.
Still for that read-out and setting: with FTSGFNAAALDYEADGSVNNGIFQ the figure was 1.5.
As for FTSGFNAAALDYEADGSCNNGIFQ, the protein stability index is 2.
Turning to FTSGFNAAALDYEADGSFNNGIFQ, the protein stability index was determined as 1.78.
Take FTSGFNAAALDYEADGSTNNGVFQ: the protein stability index was 1.69.
Still for that read-out and setting: as for FTSGFNAAALDYEADMSTNNGIFQ, the figure is 2; as for FTSGFNAAALDYEADDSTNNGIFQ, 2.31; as for FTSGFNAAALDYEADGSTNQGIFQ, 1.84.
Same read-out and setting: as for FTSGFNAAALDYEADGSTNRGIFQ, the figure is 1.66; as for FTSGFNAAALDYEADGSTNEGIFQ, 2.21; as for FTKGFNAAALDYEADGSTNNGIFQ, 2.97.
Still for that read-out and setting: with FTMGFNAAALDYEADGSTNNGIFQ the figure was 2.52.
For FTSGFFAAALDYEADGSTNNGIFQ, the protein stability index came out at 3.46.
